Experimental data from patent publication US20240181007A1, “COMPOSITIONS AND METHODS FOR TREATING PULMONARY HYPERTENSION” (Acceleron Pharma Inc., priority 2021, published 2024).
Values belong to the substance of their own block, whether it stands above or below them.

Key:
Activin A = biological target: T1, Activin A (Homo sapiens, UniProt P08476); experiment: A204 cell-based pGL3(CAGA)12 reporter gene assay, signaling by activin A; conditions: for Inhibitory Potency of Homodimeric ActRIIB-Fc Constructs IC50 Activin A: Table 5, A204 cells, luciferase reporter
T1 sequence (P08476 311-426): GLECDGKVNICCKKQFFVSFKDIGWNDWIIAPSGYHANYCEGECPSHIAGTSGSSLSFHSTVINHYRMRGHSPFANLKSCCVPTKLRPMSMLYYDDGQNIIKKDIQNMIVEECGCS
Source text: (§1) To determine activity of variant ActRIIB-Fc polypeptides, an A204 cell-based assay was used to compare effects among variant ActRIIB-Fc polypeptides on signaling by activin A, activin B, GDF8, GDF11, BMP9, and BMP10, in comparison to ActRIIB-G1Fc. In brief, this assay uses a human A204 rhabdomyosarcoma cell line (ATCC®: HTB-82™) derived from muscle and the reporter vector pGL3(CAGA)12 (Dennler et al., 1998, EMBO 17: 3091-3100) as well as a Renilla reporter plasmid (pRLCMV) to control for transfection efficiency. The CAGA12 motif is present in TGF-β responsive genes (e.g., PAI-1 gene), so this vector is of general use for ligands that can signal through Smad2/3, including activin A. GDF11, and BMP9.
(§2) On day 1. A204 cells were transferred into one or more 48-well plates. On day 2, these cells were transfected with 10 μg pGL3(CAGA)12 or pGL3(CAGA)12(10 μg)+pRLCMV ([…]) and Fugene. On day 3, ligands diluted in medium containing 0.1% BSA were preincubated with ActRIIB-Fc polypeptides for 1 hr before addition to cells. Approximately six hour later, the cells were rinsed with PBS and lysed. Cell lysates were analyzed in a luciferase assay to determine the extent of Smad activation.
(§3) This assay was used to screen variant ActRIIB-Fc polypeptides for inhibitory effects on cell signaling by activin A, activin B. GDF8, GDF11. BMP9, and BMP10. Potencies of homodimeric Fc fusion polypeptides incorporating amino acid substitutions in the human ActRIIB extracellular domain were compared with that of an Fc fusion polypeptide comprising unmodified human ActRIIB extracellular domain, ActRIIB-G1Fc. For some variants tested, it was not possible to calculate an accurate IC50, but signs of inhibition in the slope of the curves were detectable. For these variants, an estimate was included of the order of magnitude of the relative IC50, i.e. >10 nM or >100 nM instead of a definite number. Such data points are indicated by a (*) in Table 3 below. For some variants tested, there was no detectable inhibition in the slope of the curves over the concentration range tested, which is indicated by “ND” in Table 4.
as §1, with “A,” for “A, activin B, GDF8,”, “GDF11,” for “GDF11, BMP9,”, “and BMP9.” for “and BMP10, in comparison to ActRIIB-G1Fc.”, “(Dennler el” for “(Dennler et”, “activin A,” for “activin A.”
(§4) On day 1, A-204 cells were transferred into one or more 48-well plates. On day 2, these cells were transfected with 10 μg pGL3(CAGA)12 or pGL3(CAGA)12(10 μg)+pRLCMV (1 μg) and Fugene. On day 3, ligands diluted in medium containing 0.1% BSA were preincubated with ActRIIB-Fc polypeptides for 1 hr before addition to cells. Approximately six hour later, the cells were rinsed with PBS and lysed. Cell lysates were analyzed in a luciferase assay to determine the extent of Smad activation.
(§5) This assay was used to screen variant ActRIIB-Fc polypeptides for inhibitory effects on cell signaling by activin A, GDF11, and BMP9. Potencies of homodimeric Fc fusion polypeptides incorporating amino acid substitutions in the human ActRIIB extracellular domain were compared with that of an Fc fusion polypeptide comprising unmodified human ActRIIB extracellular domain.

BMP9 [1] = biological target: T2, BMP9 (Homo sapiens, UniProt Q9UK05); experiment: A204 cell-based pGL3(CAGA)12 reporter gene assay, signaling by BMP9; conditions: for Inhibitory Potency of Homodimeric ActRIIB-Fc Constructs IC50 BMP9: Table 5, A204 cells, luciferase reporter, ND: not detectable over concentration range tested
T2 sequence (Q9UK05 320-429): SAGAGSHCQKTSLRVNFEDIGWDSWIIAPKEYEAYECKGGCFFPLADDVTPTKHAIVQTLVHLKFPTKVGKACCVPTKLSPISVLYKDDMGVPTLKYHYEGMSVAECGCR
Source text: as §1, §2, §3
as §1, with “A,” for “A, activin B, GDF8,”, “GDF11,” for “GDF11, BMP9,”, “and BMP9.” for “and BMP10, in comparison to ActRIIB-G1Fc.”, “(Dennler el” for “(Dennler et”, “activin A,” for “activin A.”
as §4, §5

GDF11 [2] = biological target: T3, GDF11 (Homo sapiens, UniProt O95390); experiment: A204 cell-based pGL3(CAGA)12 reporter gene assay, signaling by GDF11; conditions: for Inhibitory Potency of Homodimeric ActRIIB-Fc Constructs IC50 GDF11: Table 5, A204 cells, luciferase reporter, ND: not detectable over concentration range tested
T3 sequence (O95390 299-407): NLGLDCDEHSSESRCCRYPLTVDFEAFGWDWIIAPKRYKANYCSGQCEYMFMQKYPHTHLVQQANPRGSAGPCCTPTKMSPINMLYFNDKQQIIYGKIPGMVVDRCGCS
Source text: as §1, §2, §3
as §1, with “A,” for “A, activin B, GDF8,”, “GDF11,” for “GDF11, BMP9,”, “and BMP9.” for “and BMP10, in comparison to ActRIIB-G1Fc.”, “(Dennler el” for “(Dennler et”, “activin A,” for “activin A.”
as §4, §5

GDF11 [3] = biological target: T4, GDF11 (UniProt O95390 299-407); experiment: cell-based or functional assay
T4 construct: also called Growth and differentiation factor-11; BMP11
T4 sequence (looked up): T3 sequence (O95390 299-407)

BMP9 [4] = biological target: T2, BMP9; experiment: Biacore-based binding assay (surface plasmon resonance), BMP9; conditions: SPR 37° C., FIG. 9, compared to Fc fusion with unmodified ActRIIB extracellular domain
Method: To determine ligand binding profiles of variant ActRIIB-Fc homodimers, a Biacore™-based binding assay was used to compare ligand binding kinetics of certain variant ActRIIB-Fc polypeptides. ActRIIB-Fc polypeptides to be tested were independently captured onto the system using an anti-Fc antibody. Ligands were then injected and allowed to flow over the captured receptor protein. ActRIIB-G1Fc was used as the control polypeptide.
To determine ligand binding profiles of variant ActRIIB-Fc homodimers, a Biacore™-based binding assay was used to compare ligand binding kinetics of certain variant ActRIIB-Fc polypeptides. ActRIIB-Fc polypeptides to be tested were independently captured onto the system using an anti-Fc antibody. Ligands were then injected and allowed to flow over the captured receptor protein.
A Biacore™-based binding assay was used to compare the ligand binding kinetics of an ActRIIB-Fc:ActRIIB(L79E)-Fc heterodimer with those of unmodified ActRIIB-Fc homodimer. Fusion proteins were captured onto the system using an anti-Fc antibody. Ligands were then injected and allowed to flow over the captured receptor protein at 37° C. Results are summarized in the table below, in which ligand off-rates (kd) most indicative of effective ligand traps are denoted in bold.

Substance: E50K: homodimeric ActRIIB-Fc fusion, E50K substitution in human ActRIIB extracellular domain
Inhibitory Potency of Homodimeric ActRIIB-Fc Constructs IC50 Activin A (Activin A): 0.132 mg/L | Inhibitory Potency of Homodimeric ActRIIB-Fc Constructs IC50 BMP9 (BMP9 [1]): 0.721 mg/L | Inhibitory Potency of Homodimeric ActRIIB-Fc Constructs IC50 GDF11 (GDF11 [2]): 0.18 mg/L

Substance: K55D: homodimeric ActRIIB-Fc fusion, K55D substitution in human ActRIIB extracellular domain
Inhibitory Potency of Homodimeric ActRIIB-Fc Constructs IC50 Activin A (Activin A): 0.396 mg/L | Inhibitory Potency of Homodimeric ActRIIB-Fc Constructs IC50 BMP9 (BMP9 [1]): 5.5 mg/L | Inhibitory Potency of Homodimeric ActRIIB-Fc Constructs IC50 GDF11 (GDF11 [2]): 0.365 mg/L

Substance: F82W: homodimeric ActRIIB-Fc fusion, F82W substitution in human ActRIIB extracellular domain
Inhibitory Potency of Homodimeric ActRIIB-Fc Constructs IC50 GDF11 (GDF11 [2]): 0.276 mg/L

Substance: A24N: homodimeric ActRIIB-Fc fusion, A24N substitution in human ActRIIB extracellular domain
Inhibitory Potency of Homodimeric ActRIIB-Fc Constructs IC50 Activin A (Activin A): 0.128 mg/L | Inhibitory Potency of Homodimeric ActRIIB-Fc Constructs IC50 BMP9 (BMP9 [1]): 0.409 mg/L | Inhibitory Potency of Homodimeric ActRIIB-Fc Constructs IC50 GDF11 (GDF11 [2]): 0.099 mg/L

Substance: Y60K: homodimeric ActRIIB-Fc fusion, Y60K substitution in human ActRIIB extracellular domain
Inhibitory Potency of Homodimeric ActRIIB-Fc Constructs IC50 GDF11 (GDF11 [2]): 0.414 mg/L

Substance: F82W (homodimeric ActRIIB-Fc construct) (Fc fusion)
IC50 (ng/ml), A204 CAGA12 luciferase reporter assay (GDF11 [3]): 276 ng/mL

Substance: L79R (homodimeric ActRIIB-Fc construct) (Fc fusion)
IC50 (ng/ml), A204 CAGA12 luciferase reporter assay (GDF11 [3]): 234 ng/mL

Substance: Y60K (homodimeric ActRIIB-Fc construct) (Fc fusion)
IC50 (ng/ml), A204 CAGA12 luciferase reporter assay (GDF11 [3]): 414 ng/mL

Substance: E52K: homodimeric ActRIIB-Fc fusion, E52K substitution in human ActRIIB extracellular domain
Inhibitory Potency of Homodimeric ActRIIB-Fc Constructs IC50 Activin A (Activin A): 0.762 mg/L | Inhibitory Potency of Homodimeric ActRIIB-Fc Constructs IC50 BMP9 (BMP9 [1]): ~10 mg/L | Inhibitory Potency of Homodimeric ActRIIB-Fc Constructs IC50 GDF11 (GDF11 [2]): 0.296 mg/L

Substance: E52A: homodimeric ActRIIB-Fc fusion, E52A substitution in human ActRIIB extracellular domain
Inhibitory Potency of Homodimeric ActRIIB-Fc Constructs IC50 Activin A (Activin A): 0.198 mg/L | Inhibitory Potency of Homodimeric ActRIIB-Fc Constructs IC50 BMP9 (BMP9 [1]): 0.359 mg/L | Inhibitory Potency of Homodimeric ActRIIB-Fc Constructs IC50 GDF11 (GDF11 [2]): 0.071 mg/L

Substance: L79R: homodimeric ActRIIB-Fc fusion, L79R substitution in human ActRIIB extracellular domain
Inhibitory Potency of Homodimeric ActRIIB-Fc Constructs IC50 GDF11 (GDF11 [2]): 0.234 mg/L

Further lines, with some results ahead:

Inhibitory Potency of Homodimeric ActRIIB-Fc Constructs IC50 Activin A (Activin A): 0.206 mg/L | Inhibitory Potency of Homodimeric ActRIIB-Fc Constructs IC50 BMP9 (BMP9 [1]): 0.777 mg/L | Inhibitory Potency of Homodimeric ActRIIB-Fc Constructs IC50 GDF11 (GDF11 [2]): 0.318 mg/L
Substance: K55R: homodimeric ActRIIB-Fc fusion, K55R substitution in human ActRIIB extracellular domain

IC50 (ng/ml), A204 CAGA12 luciferase reporter assay (GDF11 [3]): 544 ng/mL
Substance: Y60P (homodimeric ActRIIB-Fc construct) (Fc fusion)

Inhibitory Potency of Homodimeric ActRIIB-Fc Constructs IC50 GDF11 (GDF11 [2]): 0.544 mg/L
Substance: Y60P: homodimeric ActRIIB-Fc fusion, Y60P substitution in human ActRIIB extracellular domain

Inhibitory Potency of Homodimeric ActRIIB-Fc Constructs IC50 Activin A (Activin A): 0.756 mg/L | Inhibitory Potency of Homodimeric ActRIIB-Fc Constructs IC50 BMP9 (BMP9 [1]): ~3 mg/L | Inhibitory Potency of Homodimeric ActRIIB-Fc Constructs IC50 GDF11 (GDF11 [2]): 0.638 mg/L
Substance: E50P: homodimeric ActRIIB-Fc fusion, E50P substitution in human ActRIIB extracellular domain

inhibition of BMP9 compared to fusion polypeptide with unmodified ActRIIB extracellular domain (in words) (BMP9 [1]; A204 reporter gene assay): less potent inhibition of BMP9
Substance: F82K: homodimeric ActRIIB-G1Fc fusion with F82K substitution; mature SEQ ID NO: 42
inhibition of activin A compared to fusion polypeptide with unmodified ActRIIB extracellular domain (in words) (Activin A; A204 reporter gene assay): essentially undiminished inhibition of activin A and GDF11 | selectivity of antagonism (activin A and GDF11 over BMP9) compared to unmodified ActRIIB-Fc (BMP9 [1]; A204 reporter gene assay): more selective antagonists of activin A and GDF11 | inhibition of GDF11 compared to fusion polypeptide with unmodified ActRIIB extracellular domain (in words) (GDF11 [2]; A204 reporter gene assay): essentially undiminished inhibition of activin A and GDF11 | reduction in affinity for BMP9 compared with reduction in affinity for GDF11 or activin A (BMP9 [4]): reduce ActRIIB binding affinity for BMP9 more than they reduce ActRIIB affinity for activin A or GDF11 | reduction in affinity for BMP9 compared with reduction in affinity for GDF11 or activin A (BMP9 [4]; listed as ActRIIB(F82K)-Fc): greater reduction in their affinity for BMP9 than for GDF11

Inhibitory Potency of Homodimeric ActRIIB-Fc Constructs IC50 BMP9 (BMP9 [1]): 0.165 mg/L | Inhibitory Potency of Homodimeric ActRIIB-Fc Constructs IC50 GDF11 (GDF11 [2]): 0.045 mg/L
Substance: K74R: homodimeric ActRIIB-Fc fusion, K74R substitution in human ActRIIB extracellular domain

Inhibitory Potency of Homodimeric ActRIIB-Fc Constructs IC50 BMP9 (BMP9 [1]): ~40 mg/L | Inhibitory Potency of Homodimeric ActRIIB-Fc Constructs IC50 GDF11 (GDF11 [2]): 0.389 mg/L
Substance: F82W/N83A: homodimeric ActRIIB-Fc fusion, F82W and N83A substitutions in human ActRIIB extracellular domain

Inhibitory Potency of Homodimeric ActRIIB-Fc Constructs IC50 BMP9 (BMP9 [1]): 1.21 mg/L | Inhibitory Potency of Homodimeric ActRIIB-Fc Constructs IC50 GDF11 (GDF11 [2]): 0.591 mg/L
Substance: R40A: homodimeric ActRIIB-Fc fusion, R40A substitution in human ActRIIB extracellular domain
